Results on 68 sequences are retold here after the domain aggregation screens of Martell et al. (2025).

The nature of this series: soluble fraction after stress (log2 fold change); higher = more stays soluble; pooled small domains, quantitative proteomics. The conditions noted are these: stress: 50 degC. A digest of the protocol: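 Quantitative proteomics served as the high-throughput read-out for pooled custom libraries of small protein domains. Each was stressed at 50°C. Aggregation propensity is expressed as the base-two log fold change in soluble protein after stress. A higher value means a larger share of the protein remains in solution.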
Consider “HMSIESPEEFNAKFPPGSEIYATNIQKNAIVQSPANAKGDVEILANSMRLTINFRFISKRDT”, for which the “soluble fraction (log2)” value was 0.0469. Under “HMSIGPQMAGRRVLSGDLIARLEAFEGTVVLGRGVAREDALLIATQAGHVRWEPASRRLWVDSTA” stands -0.458. “HMSIHPRDKADLGTALSKWKKGALDDKQLELEVARVFMRTYGKKLEGQALNKAVAAWVAALTQSKK”: the “soluble fraction (log2)” value came out at 0.506. Consider “HMSINIDEEKKILGPNADQIIKGITTWGQGLVSKGIWSDADFEEFKIFAATGNGINALNKVRKYY”, for which the “soluble fraction (log2)” value was -0.255. The result for “HMSIQMPDLSITPVTDAKKKIESLQLQYKEVGEYNDSVIAGYVIRTEPASGSYLNEDEEVIIYVSKG” reads -0.246. The result for “HMSISEFNYTEFNGLVEKGQVSEVTISGREIEGRLTSGESFKTYSPETDNSALVGDLLKNNVKINGKP” reads 0.12. Under “HMSITKDNLSIGTNIRISGFSDIGRIISIPNKGNQVQVQIGSAKMNIKINSIVEIIKEEKDFNKNISN” stands -0.102. Consider “HMSIYMNIYNEFKKYIIANVYKYDDKLPSVRSIALEYGINPNTVQRAFQLLEDEGYIKTISKKGVYVNYR”, for which the “soluble fraction (log2)” value was -0.781. The result for “HMSKAYLSVESNISGARVFVDGQKEGTTPLSDVLLSAGEHLILVKKQGYETYQKRVRFQKGRSMSLYVDLS” reads -0.159; that for “HMSKDQKKFFIEIVSIRGFGSQIGISILNKLSIPQIINAIKTQNKKEISSIPGIGQKMTERLILELNNKFK”, -0.0747. Consider “HMSKININTITESELKELPISTVKQKAIQDYLIDRGFISNIYDLLDIKEITSDDVSLLKKVVNVKLPY”, for which the “soluble fraction (log2)” value is -0.218. With “HMSKIVPVAYSQFLKDVKNGNVSQVEIRGNNIKGINNNGSSFSTYAPNDLSLIDKLEKSNVEIIVMPLE”, the “soluble fraction (log2)” value was -0.125. The result for “HMSKKLLVLQTSDDAKAKDVLSQNGYQLDDGDKLSIIETEQTKMADVIKLLSDNAIDIEDVQHVH” reads 0.217; that for “HMSKLQETEIPVALEVEKIPGLSNELKQKLLKIKPQTIGQASRISGITPAAISILMIYIKKNESISAVK”, -1.57; that for “HMSKLQKTKYAGVYFTEDTQTRVKTYVARIVLAGIIDTEVVVGHSNDQHRTNAAIAYQRRLELIQEAKN”, -3.86. Under “HMSKLSLREIVKKFEEQIIQLHKRGLNHSEISREIVTKNSIDLGDSHIDSLRRAISVHLQTP” stands -0.0999. Take “HMSKPIREVAYETLKNAIVTGEIPAGSRIVETEYAERMHISRTPLREALRKLERDGLVEYVVRRGVVVRAF”: the “soluble fraction (log2)” value was -1.54. “HMSKPTLTLKSNAYPYNLNGERINNYLGFTYIKKGATLNYQGSKRINGQNYYYIGDGAYIKNTTVGSTNN”: the “soluble fraction (log2)” value was -1.51.

Consider “HMSKQDRRIRRTRRLLKESLIQLMQEKEFMNISVREVTERADLNRGTFYLHYQDTRHLLQDIENETL”, for which the “soluble fraction (log2)” value is -3.25.

As to “HMSKQEFVDRLRVSLSGKISPASVEDNARYYEDYINTHIRLGEPEEDVLEGLGDPRLIARSIVAAESV”, the “soluble fraction (log2)” value is 0.0896. As for “HMSKQLGFKIKTARRKLNISQGDLSKKLEISPSYLNLIESGKRKVSTDLLMKASEILNLDLKKL”, the “soluble fraction (log2)” value is -0.281. In the case of “HMSKQQFLDELAARLREEGAELLVAENLNFYRSYIEEEVAKGRSEEEVLAELGNPALIARSILDAAGF”, the “soluble fraction (log2)” value is -0.153. “HMSKSIELMNEIKKYIEEYYLQYRQSPSTTKIAEAVGIARGTAYKYLVEMSERNMIEYDGQEISTEVTRKY”: the “soluble fraction (log2)” value was -0.0213. Under “HMSKSKSEIDKDPHFWSSLFQRIGEGESLRKIAKDSKIPKSTLWAWIRNDPQLALRYSEAQQ” stands 0.064. Under “HMSLAATLSPREIDTVRLIAVGSSNKEIARQLGIAETTVKIHVQHILRKLNLTSRVQVAVFANAEGII” stands -0.801. Under “HMSLAISGRNQLHGIIEEVRSDGLLSQIYLRVGDQVLTAVITRDAVAELKLKRGDTAVAIMKSTEVMIARE” stands 0.147. In the case of “HMSLDLERAVALLSLPRPVGNHPEDGELVEAGIGRYGPYVKHGSKYANLPDADEVFTIGMNRAVEVLAAK”, the “soluble fraction (log2)” value is -0.0399.

For the sequence “HMSLDTASDKELLGLIVSEPIATRVLDAFRTLDATLFRTTPAELAAAAGVSSEHAQKIKAVAEIAARMLKP”, the “soluble fraction (log2)” value was -0.377.

Turning to “HMSLEDYVIIKNKTVKVYETEFDGAPVVTSSSVGQKLILVEYNDNFAKILYRAKDGLDYVGYIKRKDVYVR”, the “soluble fraction (log2)” value is -2.4. For the sequence “HMSLLLTPREASVWASEYLGKKVTSNNIIYLLNYGKIANHSTDLKENLIDKNELKIYYDSTIKSQKH”, the “soluble fraction (log2)” value is -0.216.

Consider “HMSLLQDRQRHEALAALGYYRGSVSAAWGAASVEALKAAQAALGVEVDGKWGPKTEDVIQAALGT”, for which the “soluble fraction (log2)” value is -0.00704. As to “HMSLLQTRQRHEALAALGFFKGDVAAEWSAASTEALRAAQASLGIRVDGKWGPQTEDAIGKALAERQG”, the “soluble fraction (log2)” value was -0.102. For the sequence “HMSLLTIDELSQATGVSVRTLRYYVSSGVLDKPTGETRNARYGTHHLDQVRNIKKLQEEGLTLNRILEIKK”, the “soluble fraction (log2)” value was -1.65. Under “HMSLNHDIWVQELKEKRSGYGISQSRLAIAAGMTRQYLSDIETGKVLPSAERKAAITEALERFNPD” stands -0.368.

As to “HMSLNNAHNTIFPRIIELMEMKQLENVLLIGGGIIPRKDIESLESSGVTKLYGPGTPVKETIEFITNWVK”, the “soluble fraction (log2)” value is -0.268. For the sequence “HMSLPKVLVPTDITVSQLAKYLEVDAIAIVKKLFGLGVVASLNQRLENEQMQLLGQEFGKDIIFTEN”, the “soluble fraction (log2)” value is -0.438. The result for “HMSLPTSDWKRALSLFDEALSLPPDARDAWLAHTIAREPAVSPLLQKLLGAHRRVETNDILATLPR” reads -0.286. Turning to “HMSLQNTMANFAGGVLVLFLKPFKAGDYIVTKDGEGTVASIGLVYTTLLTIENKRIVIPNSSISNSPITN”, the “soluble fraction (log2)” value was found to be 0.0055. The result for “HMSLRGEKTYDEAHQKLIKSAVELFKNPLVSPEKITVSQIAKHAGVSVATAYNHFPENKLDIYGSIF” reads -0.071; that for “HMSLRVIEIFGTPQQMSARISLMDGSVTDVKVGQSIPGTSYKVASITGNGVWIQNGTAVSYTHL”, -1.3.

Consider “HMSLSDADVERLLEVAIDIESLEEREGLYYQANESEPYSGWGKLMYDSGQVERLVPYKDGRWEGLWTIW”, for which the “soluble fraction (log2)” value is -1.04. As to “HMSLSISSLVFFRKNAGLTQADIATAMSITQSAVARLEKRLLSDSDVTLKTLERYAEAVGIRMHVDFEP”, the “soluble fraction (log2)” value was -0.0207. Regarding “HMSLSKEEFETISKQVLELAGAGPIPVKELLQKMERTSKEKAWKVIEFLQAEDKIVPDATGRIQL”, the “soluble fraction (log2)” value is -0.068. As for “HMSLSKQETEFLTTFSASGKRVFTYQQATDYWQSKVAATNVLGRLVRKGWLQRLERGLYMIIPLEAGPERF”, the “soluble fraction (log2)” value is -0.853.

For the sequence “HMSLSPAATRSRGYPSVLLTMKAPERLVSAAGPDRRAYLVGTDPLVIELPGVKGLYKVDPDQIVFE”, the “soluble fraction (log2)” value stood at 0.0566. The result for “HMSLTEEQVDSGLKEIRLALLEADVALPVVKNFITNIKPKAIGQEIIRSTSPGQMIVKIVYDELVSIL” reads -0.0891; that for “HMSLTEESAKSLIGLTENEAVKVAAERGWTVRVAMRDGEAFMLTQDYSENRVNLTVMKTLVTAVTI”, -0.273; that for “HMSLTMPKLIGMHLFQAERTLNYYGFQYKVEGPDSASVVIDQYPKEGVTVDPHYPITLKIGPSA”, -0.158. Under “HMSLYGGYEIDIIKEEVVDAGIKLLRRRVIVADQRGISVYEGKPTFASDDQVLIKEGQYQIDKLG” stands -2.63. Under “HMSMHVHTPNPDFKPSNTNALQEGQLVEHPKFGFGKVQKIETEGLNKKASIQFEHFGEKTLLLSFAKLRII” stands 0.0178; under “HMSMLGTEQRVLVLGPARKGEGFLMARTDNNRIVNFEGPLSLVDTMVRVKVTDVYPHSLGGQLL”, -1.55.

As for “HMSMPDERMLTSWMMARVKAAGKTMTRDAWNEFFERSNDSMDHMDMEMEKLLSYVYDKDGITLEDVEA”, the “soluble fraction (log2)” value was -0.394. Under “HMSMQIILLDKVVNLGGLGDVVKVKDGYARNYLIPQGKAKRANTANLAEFEARRVELERLAAEQLAQAQA” stands 0.0814. On to “HMSMRIDTNTLNYYVQNAQISLSVLRTKINNLDQFLSGEKQPTFNQLSEIAKKINVPTGLLLLNKS”, for which the “soluble fraction (log2)” value was -1.45. Under “HMSMSKISNLLEIMMIIQYKGLTTASELAQSLGVDKKTVYRYINSLSKANIPIYTKKGRYGGFYIDKNF” stands -1.19. The result for “HMSMSTVGERIKKKRKNLNFTQQELAAKLNISAQAVSKWENGVALPDLGLMPKLAQVLESTVDGLLGYQGA” reads 0.0315; that for “HMSMTLSVLDDVRGLSESRRKQLFHSFGSIKKLREQSKETLMSIPYLPEKVALELYDKLHEE”, -0.218; that for “HMSMVGSVNKQGRPFALLRVDNLLYQVKVGDYLGQNYGRITQIDETQIALREIVQDAAGEWIERPGVLQL”, 0.00588. The result for “HMSNATELVYDDGRKLLISYETLVGGYHPDLGWIRTAKTYSISTDKHIRNYFNNVTNPRVVGEDILETLKI” reads 0.0667; that for “HMSNDRSYLARLQDYYAEHRALPSYASIGALLGLRSKSSVAALVARLKLAGFVESTPDRRLAPTRRFF”, -3.24; that for “HMSNEWIEISAKTVDDAINEGLIRLGTTTDKMDVEVLEKESAGFLGFIGKHDAKIRVRFKEV”, 0.105. In the case of “HMSNGYVTAKTTVNVRKSASESGERLGVIYQGDKLELVMNQADGWTKVKYKGQTAYVKSEFM”, the “soluble fraction (log2)” value was -0.6.

For “HMSNHYETLGVPRDASQEDIKRAYRRLARKLHPDVAGPGKAEEFKAVNEAYAVLSDEESRRMYDLGGDDAL”, the “soluble fraction (log2)” value worked out at 0.146.

“HMSNIQLVENLYRLRKAHHYTQQEISDLLNISRQAYSNYETSKRTPDLDSLMRLADIYGVSLDQLVNHP”: the “soluble fraction (log2)” value is -1.45. “HMSNLENSLNESLSLLKSNKYNEALEILKKIEIEDSRVFFLLGTIYSVMKNINLGEEFLIKASK”: the “soluble fraction (log2)” value is -1.48. The result for “HMSNLGLQIVRTLTDAGKGVVFITHKLKEALTIADRINVLRRGKVVGDADPKTASESQIAEMMVGRPVQL” reads -0.144; that for “HMSNMWVWSKLSGIQWMDAWEDRFHGNPNTVITRLKTNKTVRVEVYTETEQEALDIKKLFGGSIRKLV”, -2.96; that for “HMSNRFIQFRQRAIDWLNSDRDFNAGILLLEESGFKPGVVAKLKRHGVNGPEAKKRLKFLINELVKAWA”, -0.0824.
